According to the supplement of paper PMC9170038:

Tested on: MS2 coat protein
Assay: apparent KD of MS2 coat protein; designed switch direction (-1 OFF switch, 1 ON switch): 1; higher = weaker reporter binding
In short: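 Each step of the titration lasted 0.8–1.5 h at the lowest concentration and 10–20 min at the highest. The protein, SNAP-549-labelled MS2 coat protein, went from 0.7 or 1.5 nM doubling to 3 µM over RNA switches transcribed on Illumina chips by stalled E. coli RNA polymerase. Normalised cluster fluorescence was curve-fitted, and the per-design median over clusters is given as apparent KD.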

[1] = input ligand: microRNA oligo, concentration not stated
[2] = Eterna round: R95, input ligand: microRNA oligo, concentration not stated
[3] = Eterna round: R95, input ligand: FMN 200 uM
[4] = Eterna round: R95, input ligand: none

Sequence	apparent KD of MS2 coat protein (input ligand: FMN 200 uM) [nM]	apparent KD of MS2 coat protein [1] [nM]	apparent KD of MS2 coat protein (input ligand: none) [nM]	apparent KD of MS2 coat protein [2] [nM]	apparent KD of MS2 coat protein [3] [nM]	apparent KD of MS2 coat protein [4] [nM]
UGACACACGGCAGGAUAUGCUUAGCAAAGCUAAGCAGAAGGGCCUCAUGUCGUGGAAAUGUGACAUGAGGAUCACCCAUGUCGC [Omei SS(NG)1 Cv5] (Eterna round: R96, puzzle: Same State NG 1)	27.3	17.8	29.9			
AGGUGGUGUGGAAAGGAUAUACGGUUGAGGACAUGAGGAUCACCCAUGUGGUAGAGGACGUGAGUGUAGAAGGUUCGGGAUUGGU [JR_SS@_Sub023] (puzzle: Same State 2)				48.5		
UGUUGUAUUACAGGAUAUCUAUUGUUUUUGUUUAGAGAAGGGUAUUCACAUGAGGAUCACCCAUGUAUAUACGAGGAAGUUGUG [JMF's solution 80] (Eterna round: R96, puzzle: Same State NG 1)		45				
AUAGUUUCCGAAGGAUAUGAUGAGGAUCACCCAUCAGAAGGUUGGCUAUUGGGUGGACAUGAGGAUCACCCAUGUCUUUCUGUU (Eterna round: R96, puzzle: Same State NG 1)	29.7	39.1	53.6			
AACUAUCUAUCUCAGGAUAUCAUGUCAAAGACAUGAGGAUCACCCAUGUACCAGGAAACUGGUUAUGAGAAGGGAGAUAGAUAGG [Mat - Same State 2 - Mod - D42] (puzzle: Same State 2)				64.8	193	68.3
GUGCUCGUGUGAGGAUAUGUUGCCGGGUCGGCUGCAGAAGGUACUAUUAUACAUGAGGAUCACCCAUGUCGCUUUUCUCCGGUA [salish99_SSNG1_r04_921] (Eterna round: R96, puzzle: Same State NG 1)	88	49.6	73.5			
ACGUGGACGAAAGUCCACGAAUAAGACGAACAUGAGGAUCACCCAUGUGAGGCGAGCUUUUUGUUCGUCUUAUAAAA [Mat - Sensor - Mod - D116] (Eterna round: R96, puzzle: Sensor for hsa-mir-208a)	73.1	32.1	22.6			
AAAGGACAUGAGGAUCACCCAUGUAGAAAAUACACAGGAUAUCGUCAUAUCGAAAUAUAAUGAGAAGGGUGCAAAA [Zaanininra] (puzzle: Same State 1)				179	73.5	256
CCCUUCGGCACAUGAGGAUCACCCAUGUUUUAGUUGAAGAGGUAGGAUAUGGCUGGGAGCGGAAGCCAGAAGGACCAAGUGAGU [Lareonge] (Eterna round: R96, puzzle: Same State NG 3)	7.76	8.41	12.6			
UGCCGGAUACCGACUACAUGAGGAUCACCCAUGUUAUCUCGUUAGGAUAUACUAACAACAGAUUAGUAGAAGGGACGCGGGCUU [Eternabot solution 23] (Eterna round: R96, puzzle: Same State NG 3)	25.5	24.6	30.7			
AGUCCAGCGAAAGCUGGACAAAAGCAUGUACAUGAGGAUCACCCAUGUUCAUGUACAAGCUUUUUGCUCGUUUUAAA [JL mod - D95 - 15] (puzzle: Sensor for hsa-mir-208a)				13.5	590	643
UAUCGUUUGAUAGGAUAUCGCUAUACAUGAGGAUCACCCAUGUUUACCACGCUGGUUUUUCAUACCGAGAAGGAUUCUGAUGAC [salish99_SSNG02_r04_006] (Eterna round: R96, puzzle: Same State NG 2)	38.3	31.5	27.7			
GGAGCCGGCACUGAGGAUAUUCAUAUUUAAACAUGAGGAUCACCCAUGUAGGCCAGAAGGCCUUGGGAGAAGGCAGGUCGGCUCG [salish99_ss2_r3_076] (puzzle: Same State 2)				216	26	493
